# From the supplement of paper PMC12636428
# Tested on: Saccharomyces cerevisiae
# Assay: transcriptional activation domain activity (GFP:mCherry ratio, weighted mean of sorted bins, harmonized to initial dataset scale) (arbitrary fluorescence ratio units); higher = stronger transcriptional activation
# Details: beta-estradiol 1 µM; induction time 4 h
# Method in brief: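 The activation activity of each tile is the read-weighted mean of bin median fluorescence, averaged across its barcodes and mapped linearly onto the scale of the initial dataset. Tiles were fused to an estradiol-inducible synthetic transcription factor, barcoded, and integrated at URA3 in yeast diploids carrying a GFP reporter. Induction used 1 uM beta-estradiol in SC for 4 hours at 30 °C, after which cells were sorted into 8 GFP:mCherry bins, and any tile with fewer than 50 reads was dropped.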
row,Sequence,transcriptional activation domain activity
1,ILFFCLVANSDKLHMIIFAVVPIRCVFPVFFLIFEVIINCWLPLVWHLLYNLT,43800
2,EDDEELVEEVAKKGKGKGKGKAGKAAAAIGAAEGGKGRRGRKPKAKGAEEQGE,60600
3,PLLNGSAIISRLTTGVIGDRYGVLTCEVPVAFITGCLIFSMCVLLLIILHLVC,21700
4,CPYYPMICPSFLPLLLVLLFSLYLFLSSPLDFFLPLDFLIHTHNCTFLRTKGQ,40000
5,MSQCLGTGYPIVCLVLICVRHGAMLDIREKAVEMIFTILLTSTVKVAKKLDKH,49500
6,AAAASSTPCLRRRPAPAPATARSSAARPAGCSCGGRSRRCGGRRTPSPSRRGP,20300
7,SLAVRTGAELGQDASMDDAEARNMDGNLDVDLAELSLGQRLTAVNGTEGAGRS,19700
8,MVQNWEFFVFFFRFVKFTCVQCGLWCGSPGKLLGLFLFLVCCVLFFFFFFLVE,< 6570
9,TLLYLYTFSFLFPPLLFILILLHLHHLSSSHLFFIHSIILSHNKLWPLLFLLS,53400
10,VLLQNLCRMVITRLGDWTLFKAFVLCCCLYRLSFFHDLFLFLYTFSFPLLCFT,57100
11,MHKHFVVTLIMFFYFFFLFLLRGRCWNCTPLPTLIPSTASGVLLIVFLSYVVH,26400
12,EGYDLLPFRLGCAYVVLGWYWISTTWVEAEPVSQGVKPPKDRDYFHRVKLRFD,42200
13,INCQVVYQLQGITGHMALNFASINFAIRTIYIWMHNVYVTSTLSLLILCQWVI,54700
14,LVHGRWSYQRVADMHANFFYKNVIWTFGLFWYLPFNSFDATYLYHYTFILLCN,61000
15,AVGYIWYIPFYHYNYSILRAGMMTNFFWASLCLVYSNIRPYSEIGIVYLLLCP,69800
16,PPEEEAEEAVGAEKAEEAEEAEEAEEAVEEEPPKAANGRRSRAAAASAAKSSN,35500
17,VSFDFPRSPYPNGSFESFLRDIFARCNLLEVLVFRTKVKSLRGWLKHYTYFAD,75400
18,TSLESAPVHVPMHCGIQGVVGSLGVLVSASVVQCVRASIARDSEGGMEWMRVE,33600
19,SEEAQEEAQQPKKKKRTRASDMWKEEGKAEKKEKKKAKKGKKHSKLEEPAEKA,14500
20,KSVLERILVRGAMGSERHMKHELKVFYAMRGKLSWFIKWVHVVLRWVFAKSVL,48000
21,MARLLFIPIFVNLSFPHHKSYFFLTSMLTLLLQLYLLLSLCWLILLLPCLKDS,40400
22,HFVELSTILGIIILHSPAICLQVVLLLFCGLHSVVVALMLDRVPPLIYLAFFV,66100
23,FWPWTFWPWIFWTFGLFGLGLFGLGLFGFFGLFGPLDFLDFLDFLALDFLDFL,37000
24,LFFYFFIFLFFYFFILLFYYFIILLFYYLFFFFATVLILILLFFFFFFTYQRT,47600
25,STAARTHGSKRSRDEEDGEGEERAKKRSRSEERVNTTRETRATRATRATSARP,31100

row,Sequence,transcriptional activation domain activity
1,RFMVVIVSLFPRLNYFMDAVGHVLSVYYFNHLACQWITTAITSLAIVLFALRT,53900
2,KARKRTRERKKEKEGRARTKGEGDRYEGRKFEISGTVEVKRERCEGTRRTKPK,9070
3,QAPQAGRGQGAQGGRTRHQAGGARAEEDEPQGARQEGRGGQGGGEEEARGGEG,37600
4,KYLIQSLILYPVPLLQVIITYFVQIKRYDISTVVGCSLLNVYYPNWMFLVFFL,58800
5,MLMDLALTLDDLTVRSLSVVGASVFMAFTYATLPATLGWGTWFLLSVWTLIFY,64200
6,AGKKTVTSEEAEVKVEVEAEVGVEVDIEPAAAKKPAKKTKAKVKTIAEEEVKV,31900
7,NANADSNIAGNPKNNDATIDNELTQILNEYNMNFNDNLGTSTSGKNKSACPSS,54200
8,GHERERGSGREKRGGERDATGRRERDRESGRESRESRESSRRERGSRDEGRRD,39800
9,MCVVFFPVLLLWRLLFRSFSFLPVCIVSPVTRFFFLSFFPSQSIVSNSFILPA,29800
10,MFCFFEFLFFYKEDLAAYALCSCSQLPASFFLFLFPSPLWLFFFFFIFCLTFM,38900
11,TAIVTVISTVMAIATVTATGIMSIIDTMSTTAIITAIAMDMVTESIMVITAIT,87500
12,GGLCAANFVAILITASVNIWTLLGNVYYSPLVNRCVCVARPEWMWTIWIFPLL,46700
13,GEEGDKPKRGRKRKEAPKDDGEDADDAEAPAAKKAKPASKPASKAAATKPASK,34200
14,MMLLLMLMILMMILTMMMLLLLHKQENEGCVLFLFLLWWLWLWFWLWCCWKSS,35300
15,PVVAPKQPRRRAVAGERYERLAQVGEGTYGKVYKARNTGSGALVALKRIRMEQ,68200
16,MDVGIYVCICFDGLFSFGEFFYVVYTSFINHTIEFLCLFGFHFLFWVLIFFWV,50900
17,MSYLQMFTLIEGKFQKQMLFLFFFLLCNLLSFFYIYIYVLLTLIFFTTTSIHL,56700
18,KSNGTEGAGAEGSKGGEGSTGEGSKGEGSSGEGAKGGEGSKGEGAGAEGSKGG,36300
19,ILHCFIIPLLFLVGFLSFLSLPCLLAVAFLIFMSILNLLLLGFLLLLWILLFF,41200
20,DETAPATEEASKEGEAAEEAAPAAEAEETKTEEAPNKEEGTKRRSASRKRVSI,37200
21,MRRLPTAMVSCFGVYAVSHNLSLPFVSSLFPCFIQFCARIILFSLVGYSFWSL,74500
22,YVVLQGLSGAASGFLQIVPLIIYYVKLFLMGSTPRSVYKIKYTLRHVSWGTLF,66600
23,PRQPRERKPRAEGEEGEHVEGQQEAGERRRERRPRKPRNKSAGGAGAGAEGAA,17100
24,RDNSFLHALIHRFHEVHIVAWCIEKVNFMYLHPGVPFYVLCDCTRGPAIMVLH,51300
25,CWILGFISVFTFAYLVLTVLPNLYLNCPYSTPLSELSWRLSQHLLLLILHLIR,69500

row,Sequence,transcriptional activation domain activity
1,FGESCAGVLPVTMYDNRLNRHSEHHGKNVYEKMVSGRYLGELVRWILVELLDR,54500
2,PLYPTTRCIFFFYRFLLYVVHLNMSLLMHSFFFVLLQACRGWMSLFLLLSLLF,47900
3,ELGLGSWWVFIVLGHTSVLLELAPRYSFALYFLPVFLLTVTVVSFFFAFVLYL,41100
4,MSHPYRGERVHLQVGQNIWIVALIVLVQIFSTVRSNPGCSLLVSMTAKFWCPR,63800
5,SDEEGEMADRLADDDLDVSVLKTAKELAETAALYRIRNRRPTAHLVLPRVVEG,40200
6,GDEEREQRKKHKKRKDRGSDDEDRHHKHKHKKDKHREKGTKDSKKHRGNEPSS,64300
7,VTHHYGNRVGVRWLTNGIKCYYVPFAIIHRNAIFPTVWSLFPILRNILIRERI,63400
8,AVLEFYEQSTRLVASDALGRHVRIELPPRLLVYVVFFSPSVAVVSRLCSLLAC,35600
9,MTYTFDLFSSFLSIVYMPHMATLYFLFFFLLLQCGYFIVLCFFFFHCVLCCFS,67000
10,LGVSAGAGLYPLQDKKREEEEDGVRGFVREGLGDLSCFIGSSVPLTAKKVLEA,75700
11,MMRCRFGVVFRILPYYLFVFPQIFIYLLLDSFDVQSSLPLLLLYTSLIILVTW,56900
12,TLPFQIFMICDLTVPLKLNGFLVNGSLNLLGIMMVRVTFSCLGLAQLFQLIIC,62100
13,WTGWEGGRYLPFFFFPFFFFFATCCFSLFMILFFVFFFPGRISISFRLLLFFL,43000
14,GPRDVFGIRSAWKLPLSVAYWLLVCLARRKDFGSLRAVTVGHITWNQYMVGER,58600
15,AGPARTGSSSSSSSSDEDKKKKKDKAEEKVEEKKEKPEEKAEDKKEASTAVAA,23300
16,MVLQNSMIVIFCHSFDIVWSVFLIGHYCILFYRYLIFCYVCVSFNWTFYLYIF,58700
17,LYIVRLRFVHHFRINTAFVEACQLSIPPFVSVSLVSLAIAVFLNCVGHHFAAF,39400
18,MDEEVEERNKAFEWTSYSWGKMQIIRYWSRCHAIVVLYTSKRRMWLLVCWLSA,60400
19,MYLQWASCPLLICVSCFYTSLIYFAIISMSSMILTLVCLDRSMCWYSGWIFSS,46000
20,YQLASDRSADCGLLRLVLDAQTFGATAAVIVLDWARPWRFIKSLLRWMHVLST,42000
21,NCVGHFTYGHFLRFLFYVDVACAYHLSMITWRVFHAMHASYWASPFTEMIFII,65500
22,KGGASPEDASAQSGGSRSKEAKETGSSPTGGKVGNSGGKSSSSSGGPEEKNKD,35600
23,TYAIWNCNKWILCILVVVASGVYISSAVILHDIFQSYEYPVLSLPTKMYCLPF,18700
24,SERRSHNQRDPERRDRNSNQSKRRRVDDSDSESDRRNRRRRVEHSSRKSHRSR,43800
